Reference: CN114716554A (dated 2022)

Legend:
[1] = molecular target: T1, Human LILRB4/CD85k/ILT3 Protein (ECD, His Tag), Sino Biological (human, UniProt Q8NHJ6 22-259); assay: ELISA, coated LILRB4 ECD-His, antibody titrated
T1 construct: extracellular domain; Bought recombinant protein with a His tag; also called 人LILRB4蛋白; LILRB4蛋白

[2] = molecular target: T2, LILRB3 Protein, Human, Recombinant (ECD, His Tag), Sino Biological (human, UniProt O75022 24-443); assay: ELISA, coated protein
T2 construct: extracellular domain; Bought recombinant protein with a His tag; also called LILRB3蛋白

[3] = molecular target: T3, LILRB5/CD85c Protein, Human, Recombinant (ECD, His Tag), Sino Biological (human, UniProt O75023 24-458); assay: ELISA, coated protein
T3 construct: extracellular domain; Bought recombinant protein with a His tag; also called LILRB5蛋白

[4] = molecular target: T4, LILRB1 Protein, Human, Recombinant (ECD, His Tag), Sino Biological (human, UniProt Q8NHL6 24-461); assay: ELISA, coated protein
T4 construct: extracellular domain; Bought recombinant protein with a His tag; also called LILRB1蛋白

[5] = molecular target: T5, ILT4 Protein, Human, Recombinant (ECD, His Tag), Sino Biological (human, UniProt Q8N423 22-460); assay: ELISA, coated protein
T5 construct: extracellular domain; Bought recombinant protein with a His tag; also called LILRB2蛋白

[6] = molecular target: T6, LILRB4 on LILRB4阳性细胞THP-1 (human, UniProt Q8NHJ6 22-448); assay: flow cytometry on THP-1 cells
T6 construct: whole, on cells; also called LILRB4阳性肿瘤细胞THP-1; 人单核白血病细胞THP-1

Measured: binding result

T5 sequence (Q8N423 22-460): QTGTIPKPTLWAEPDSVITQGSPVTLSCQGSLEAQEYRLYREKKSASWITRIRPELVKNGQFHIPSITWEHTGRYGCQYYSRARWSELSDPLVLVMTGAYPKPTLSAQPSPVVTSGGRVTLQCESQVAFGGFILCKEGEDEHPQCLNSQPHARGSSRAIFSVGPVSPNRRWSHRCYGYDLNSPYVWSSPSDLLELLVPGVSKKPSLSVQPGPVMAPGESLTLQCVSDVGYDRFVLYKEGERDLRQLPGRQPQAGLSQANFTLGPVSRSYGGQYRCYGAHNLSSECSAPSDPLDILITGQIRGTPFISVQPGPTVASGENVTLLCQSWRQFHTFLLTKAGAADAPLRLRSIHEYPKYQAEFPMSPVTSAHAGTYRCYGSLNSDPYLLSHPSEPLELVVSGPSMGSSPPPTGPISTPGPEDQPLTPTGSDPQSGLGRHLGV
T2 sequence (O75022 24-443): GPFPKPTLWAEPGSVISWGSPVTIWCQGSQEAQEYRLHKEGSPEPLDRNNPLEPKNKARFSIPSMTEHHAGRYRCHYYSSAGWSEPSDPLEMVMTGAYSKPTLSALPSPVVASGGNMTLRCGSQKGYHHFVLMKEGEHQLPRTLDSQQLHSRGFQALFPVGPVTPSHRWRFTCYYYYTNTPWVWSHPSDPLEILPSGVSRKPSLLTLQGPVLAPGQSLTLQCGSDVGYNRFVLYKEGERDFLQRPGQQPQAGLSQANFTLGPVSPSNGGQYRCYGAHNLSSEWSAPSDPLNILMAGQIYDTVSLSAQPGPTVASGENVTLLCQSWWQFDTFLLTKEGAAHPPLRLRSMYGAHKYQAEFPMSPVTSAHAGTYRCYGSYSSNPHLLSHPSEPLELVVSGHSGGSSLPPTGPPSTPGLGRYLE
T4 sequence (Q8NHL6 24-461): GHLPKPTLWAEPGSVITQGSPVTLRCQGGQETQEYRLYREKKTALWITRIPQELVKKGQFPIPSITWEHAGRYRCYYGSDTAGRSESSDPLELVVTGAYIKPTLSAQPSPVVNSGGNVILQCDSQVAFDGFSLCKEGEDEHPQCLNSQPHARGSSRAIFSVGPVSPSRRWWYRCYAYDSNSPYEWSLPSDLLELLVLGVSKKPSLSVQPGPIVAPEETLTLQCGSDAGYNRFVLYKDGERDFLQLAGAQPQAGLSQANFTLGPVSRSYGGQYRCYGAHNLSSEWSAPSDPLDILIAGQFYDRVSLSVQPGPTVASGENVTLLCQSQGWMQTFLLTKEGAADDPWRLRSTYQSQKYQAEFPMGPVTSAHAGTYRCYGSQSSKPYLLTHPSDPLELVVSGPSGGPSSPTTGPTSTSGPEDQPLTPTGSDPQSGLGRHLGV
T3 sequence (O75023 24-458): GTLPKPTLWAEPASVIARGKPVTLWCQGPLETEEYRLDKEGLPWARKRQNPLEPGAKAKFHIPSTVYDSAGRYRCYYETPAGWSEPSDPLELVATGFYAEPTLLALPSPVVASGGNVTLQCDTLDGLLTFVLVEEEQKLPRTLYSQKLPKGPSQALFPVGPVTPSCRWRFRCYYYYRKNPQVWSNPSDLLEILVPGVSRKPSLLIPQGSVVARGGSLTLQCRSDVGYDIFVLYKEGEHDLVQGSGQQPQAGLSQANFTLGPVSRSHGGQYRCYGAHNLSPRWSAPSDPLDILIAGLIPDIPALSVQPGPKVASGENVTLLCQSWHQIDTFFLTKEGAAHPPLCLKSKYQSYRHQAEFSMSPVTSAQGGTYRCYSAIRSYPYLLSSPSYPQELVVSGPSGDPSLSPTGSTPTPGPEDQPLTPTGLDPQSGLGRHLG

B1: 全人源抗体2B9 (antibody, V domains shown)
VH: EVQLVQSGGGLIQPGGSLRLSCAASGFTVSSNYMSWVRQAPGKGLEWVSVIYSGGSTYYADSVKGRFTISRDNSKNTLYLQMNSLRAEDTAVYYCAKGATGGHDAFDIWGQGTTVTVSS
VL: not shown
notes: Fully human antibody from a phage library, made as a whole antibody in CHO-S cells; IgG4 heavy chain constant region, Ig kappa light chain
binds: [1] | [6]
no binding (tested: 10 μg/mL): all other assays above
